Test results from patent US20180362665A1 (KATHOLIEKE UNIVERSITEIT LEUVEN, published 2018).

Target: ovine ADAMTS13 (in sheep plasma) (sheep)
Assay: cell-based or functional assay

B1: anti-ADAMTS13 monoclonal antibody 17C7 (antibody, V domains shown)
VH: EVQLVESGGDLVKSGGSLKLSCAASGFIFSNYAMSWVRQTPEKRLEWGATITTGGFYTFYSDSVKGRFTISRDNAKNTLYLQMSSLRSEDTAMYYCARHRYDDYYALDYWGQGTSVTVSS
VL: ENVLTQSPAIMSTSPGEKVTMTCNVSSSVSYMRWFQQKSSTSPKLWIYDTSKLASGVPGRFSGSGSGHSYSLTISSMEADDVATYYCFQGNGYPLTFGAGTKLELK
- half maximal inhibitory concentration (IC50) of ADAMTS13 activity in ovine plasma, FRETS-VWF71 assay: 2.4 µg/mL
